The record followed here is patent US20150004174A1 (Amgen, published 2015).

For one assay, the target named is human PCSK9 D374Y mutant (human, UniProt Q8NBP7 31-692, biotinylated in the ELISA formats (site not stated)). In words: cell-based or functional assay.
Assay [1] deals with human PCSK9 (proprotein convertase subtilisin kexin type 9), wild type (human, UniProt Q8NBP7 31-692, biotinylated in the ELISA formats (site not stated)). The experiment in a line: cell-based or functional assay.
Assay [2] has as its target T1, mouse PCSK9, 8xHis tagged (mouse, UniProt Q80W65 35-694).
T1 construct: The biotinylated mouse PCSK9 of the hybridoma cross-reactivity screen is entered under this molecule; also called mPCSK9-8xHIS; mPCSK9; not shown: 8xHis tag named only in the label
In words: KinExA solution equilibrium. (In general: A kinetic exclusion assay measures how much of one partner remains free in solution.)

T1 sequence (Q80W65 35-694): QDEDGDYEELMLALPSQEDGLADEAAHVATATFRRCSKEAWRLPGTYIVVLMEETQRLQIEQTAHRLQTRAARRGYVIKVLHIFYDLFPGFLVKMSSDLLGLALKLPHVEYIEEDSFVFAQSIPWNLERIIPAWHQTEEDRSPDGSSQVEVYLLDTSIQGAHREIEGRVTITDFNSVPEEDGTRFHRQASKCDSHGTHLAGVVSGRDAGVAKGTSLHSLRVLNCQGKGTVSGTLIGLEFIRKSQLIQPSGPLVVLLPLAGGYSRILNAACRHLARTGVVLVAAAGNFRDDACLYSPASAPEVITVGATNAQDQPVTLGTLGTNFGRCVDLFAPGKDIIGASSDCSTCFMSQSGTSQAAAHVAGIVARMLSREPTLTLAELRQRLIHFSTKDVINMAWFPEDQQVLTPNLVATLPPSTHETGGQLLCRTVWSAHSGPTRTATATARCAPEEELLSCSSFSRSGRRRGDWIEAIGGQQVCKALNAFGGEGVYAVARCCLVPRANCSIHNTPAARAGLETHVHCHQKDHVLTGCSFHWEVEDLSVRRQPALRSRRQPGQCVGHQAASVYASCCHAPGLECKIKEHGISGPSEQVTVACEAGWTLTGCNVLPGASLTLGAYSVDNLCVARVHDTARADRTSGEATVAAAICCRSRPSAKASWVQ

B1: 11F1 anti-PCSK9 antibody (antibody, V domains shown)
VH: EVQLVESGGGLVQPGGSLRLSCAASGFTFSNYWMSWVRQAPGKGLEWVASIKQDGSEKYYVDSVKGRFAISRDNAKNSLFLQMNSLRAEDTAVYYCARDLVLMVYDIDYYYYGMDVWGQGTTVTVSS
VL: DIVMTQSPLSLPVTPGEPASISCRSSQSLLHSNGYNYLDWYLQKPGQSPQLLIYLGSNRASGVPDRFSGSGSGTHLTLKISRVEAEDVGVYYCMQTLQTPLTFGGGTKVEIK
Turning to B1, the “EC50, block of PCSK9-mediated decrease of BODIPY-LDL uptake in HepG2 cells” value in the assay with human PCSK9 D374Y mutant stood at 35.3 nM; in assay [1] it was 124 nM.

B2: 16F12 human IgG4 (antibody, V domains shown)
VH: QVHLVESGGGVVQPGRSLRLSCAASGFTFNSFGMHWVRQAPGKGLEWVALIWSDGSDEYYADSVKGRFTISRDNSKNTLYLQMNSLRAEDTAVYYCARAIAALYYYYGMDVWGQGTTVTVSS
VL: QSVLTQPPSVSAAPGQKVTISCSGSSSNIGNNFVSWYQQLPGTAPKLLIYDYNKRPSGIPDRFSGSKSGTSATLGITGLQTGDEADYYCGTWDSSLSAYVFGTGTRVTVLQ
notes: also called 16F12.1; 16F12, anti-PCSK9 huIgG4
With B2, the “fold lower affinity to mouse PCSK9 than to human and cyno PCSK9” value in assay [2] lay within 10 to 250 fold.
